Test results taken from article PMC4887326, “Structural insights into the regulatory mechanism of the Pseudomonas aeruginosa YfiBNR system” (Protein & Cell, 2016).
Positions count from the first letter of the chain named. Names may count otherwise.

B1: YfiB (residues 34–168), wild type (domain or fragment)
chain: GLSAEQIAVLQEQGFELRDEGWEFGMSSKVLFGNNLDRLNPDSRNTLTKIARALLAVDIDKVRLEGHTDNYGDEGYNQKLSERRAESVAAVFREAGMPAANIEVRGLGMSKPVADNKTRAGRSENRRVAIIVPAE
notes: YfiB, P. aeruginosa, residues 34-168, lacking the signal peptide (residues 1-26) and periplasmic residues 27-33; ORF1 of pETDuet-1 with N-terminal His6 and a TEV cleavage site; no cleavage of the tag is told for YfiB; Monomer and dimer in solution (AUC); also called wild-type YfiB; apo YfiB
B2: YfiB^L43P (residues 34–168), co-expressed with YfiR (domain or fragment)
chain: B1 chain with L10P
notes: YfiB, P. aeruginosa, residues 34-168, with L43P; residues 44-168 are visible in the complex structure; Two copies in the 2:2 heterotetramer, separated from each other
B3: YfiR (residues 35–190), co-expressed with YfiB (domain or fragment, P. aeruginosa, UniProt Q9I4L4 35-190, looked up)
chain: DDARTSIEQRSNAVSQVLLGIFSYVRWPKEPAVLQLCVVGPTEYADGLLRGMVQANGRRVHAERRAVDNPDLGTLCNVIYLGVVDERERQQVFRSLAGHPVLSISERGTECSVGSMFCLNVGGPRITFEANLDSIARSGVRVHPSVLKLARRQATP
notes: YfiR, P. aeruginosa, residues 35-190, lacking the signal peptide; ORF1 of pETDuet-1 with N-terminal His6 and a TEV cleavage site; Dimer in the 2:2 complex; only the Cys145-Cys152 disulfide is well formed there; not shown: His6, N-terminal, kept
B4: YfiR (residues 35–190), purified alone (domain or fragment, P. aeruginosa, UniProt Q9I4L4 35-190, looked up)
chain: B3 chain
notes: YfiR, P. aeruginosa, residues 35-190, lacking the predicted N-terminal periplasmic localization signal peptide; also called native YfiR; not shown: His6, N-terminal, cleaved

Legend:
[1] = target: the molecule itself; experiment: AUC; sedimentation velocity, 25°C, samples at OD280 of 0.7 in 20 mmol/L Tris pH 8.0, 200 mmol/L NaCl, 60,000 rpm; dimer to monomers
[2] = target: B3; experiment: crystal structure; YfiB^L43P-YfiR complex, space group P1, 1.78 Å, 2:2 heterotetramer in the asymmetric unit; 0.2 mol/L ammonium sulfate, 0.1 mol/L Tris-HCl pH 8.0, 12% PEG 8000, 293 K; conditions: both partners purified
[3] = target: the molecule itself; experiment: as above
[4] = target: the molecule itself; experiment: crystal structure; VB6-bound (soaked, 2.4 Å) and Trp-bound (co-crystallised, 2.5 Å) YfiR, space group P4_3 2_1 2, a dimer in the asymmetric unit

## B1
[1]
  stoichiometry N: 2

## B2
[2]
  stoichiometry N: 1 YfiB per YfiR (printed as 2:2)

## B3
[3]
  binding result: binds

## B4
[4]
  binding result: binds
